Results on 1 molecule are retold here after patent US20230144459A1 (published 2023).

In the experiment the target is T1, BSA conjugated CD28 stalk region dimeric peptide (also: dimer, conjugated to BSA via C-terminal Lys).
T1 peptide: GKHLCPSPLFPGPSKPK
Briefly: ELISA. (ELISA stands for enzyme-linked immunosorbent assay.)

Where no end group is shown, it is not given here.

B1: antibody M9 (antibody, V domains shown)
VH: DVKLVESGGGLVKLGGSLKLSCVASGFTFSSYYMSWVRQTPEKRLEWVATISDGGDNTYYAGTVTGRFTISRDFAKNTLYLQMNSLTSEDTAVYYCARIHWPYYFDSWGQGTTLTVSS
VL: QFVLSQSPAILSASPGEMLTMTCRASSSVSYMNWYQQKPGSSPKPWIYATSDLASGVPARFSGSGSGTSYSLTISRVEAEDAATYYCQQWSSHPPTFGGGTKLEIR
On to B1, for which the IC50 – broadly, the concentration that gives 50% inhibition – was 9 ng/mL.
